Molecular target: Recombinant human CD4 (crystallisation construct) (Homo sapiens, UniProt P01730)
Test: crystal structure

B1: Fab fragment of BT-061 (tregalizumab) (Fab, V domains shown)
VH: EEQLVESGGGLVKPGGSLRLSCAASGFSFSDCRMYWLRQAPGKGLEWIGVISVKSENYGANYAESVRGRFTISRDDSKNTVYLQMNSLKTEDTAVYYCSASYYRYDVGAWFAYWGQGTLVTVSS
VL: DIVMTQSPDSLAVSLGERATINCRASKSVSTSGYSYIYWYQQKPGQPPKLLIYLASILESGVPDRFSGSGSGTDFTLTISSLQAEDVAVYYCQHSRELPWTFGQGTKVEIK
- binding result: binds

Source: PMC4407014 (Immunology and Cell Biology, 2014)
